# B1: 抗埃博拉病毒VP40蛋白单克隆抗体F1B4 (antibody, V domains shown)
# VH: EVRLQQSGPELGKPGASVKISCKTSGYVFTEYTIHWMKQSHGKSLEWIGNIYPKNGGTAYSQKFKGRATLSADKSSRTAYIELRSLTSEDSAVYYCARDNYGFDCWGQGTTLTVSS
# VL: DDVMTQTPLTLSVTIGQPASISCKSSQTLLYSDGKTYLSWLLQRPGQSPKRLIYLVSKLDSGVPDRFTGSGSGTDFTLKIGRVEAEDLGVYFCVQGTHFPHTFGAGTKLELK
# Target: ZEBOV-VP40蛋白C端的特异的抗原肽13肽 […] (扎伊尔型埃博拉病毒 (Zaire ebolavirus))
# Assay: indirect ELISA on coated VP40 peptide (hybridoma screening, P/N≥2.1 positive)
binder,measurement,value
B1,binding result,binds
